Molecular target: IL4 receptor on the gibbon cell line MLA (gibbon)
Assay: displacement of 125I-IL4 (83 pM added) from gibbon MLA cells

Which IC50 does the source give for “recombinant human IL4 (E. coli, non-glycosylated) (from UniProt P05112 25-153) (ligand)” here?
The IC50 was 0.022 nM.

From EP0730609B1
